Molecular target: the molecule itself
Assay: crystal structure; human FPPS (10 mg/ml) crystallised with 1 mM FPP and 2 mM MgCl2, sitting drop, 22 °C; 1.9 Å; one subunit in the asymmetric unit, biological assembly a homodimer

B1: Human farnesyl pyrophosphate synthase (enzyme)
chain: MNGDQNSDVYAQEKQDFVQHFSQIVRVLTEDEMGHPEIGDAIARLKEVLEYNAIGGKYNRGLTVVVAFRELVEPRKQDADSLQRAWTVGWCVELLQAFFLVADDIMDSSLTRRGQICWYQKPGVGLDAINDANLLEACIYRLLKLYCREQPYYLNLIELFLQSSYQTEIGQTLDLLTAPQGNVDLVRFTEKRYKSIVKYKTAFYSFYLPIAAAMYMAGIDGEKEHANAKKILLEMGEFFQIQDDYLDLFGDPSVTGKIGTDIQDNKCSWLVVQCLQRATPEQYQILKENYGQKEAEKVARVKALYEELDLPAVFLQYEEDSYSHIMALIEQYAAPLPPAVFLGLARKIYKRRK
notes: Human farnesyl pyrophosphate synthase (FPPS), UniProt P14324 as printed; Crystallised with the small molecule FPP in the allosteric pocket; One subunit in the asymmetric unit; the homodimer arises by crystallographic symmetry; also called FPPS; human FPPS; source: E. coli BL21 (DE3), purified (Ni-nitrilotriacetic acid, Superdex 200 size-exclusion chromatography)
B1: binds.

— paper PMC5253651, “Human farnesyl pyrophosphate synthase is allosterically inhibited by its own product” (Nature Communications, 2017)
